Biological target: thermolysin cleaved Ebola virus GP (GPTHL) (Ebola virus (EBOV), UniProt Q05320)
Test: BLI

B1: Fab100 (antigen-binding fragment of mAb100) (Fab, V domains shown)
VH: QVQLQESGPGLVKPSDTLSLTCTVSGGSLSSFYWSWIRQPPGKGLEWIGYIYYSGSPNYSPSLESRVTMSVDTTRNQISLKLDSVTAADTAVYYCVRASRSYYWGSYRPTAFDSWGQGTLVTVSS
VL: YELTQPLSVSVSPGQTAIFTCSGDNLGDKYVCWFQQRPGQSPMLLIYQDNKRPSGIPERFSGSNSGNTATLTISGTQSTDEADYYCQTWDSTVVFGGGTKLTVL
B1: binds.

B2: Fab114 (antigen-binding fragment of mAb114) (Fab, V domains shown)
VH: EVQLVESGGGLIQPGGSLRLSCAASGFALRMYDMHWVRQTIDKRLEWVSAVGPSGDTYYADSVKGRFAVSRENAKNSLSLQMNSLTAGDTAIYYCVRSDRGVAGLFDSWGQGILVTVSS
VL: DIQMTQSPSSLSASVGDRITITCRASQAFDNYVAWYQQRPGKVPKLLISAASALHAGVPSRFSGSGSGTHFTLTISSLQPEDVATYYCQNYNSAPLTFGGGTKVEIK
In the case of B2, the Kd is reported as 8 nM.

Reference: article PMC5241105 (Science (New York, N.Y.), 2016)
